Laboratory results: paper PMC11148069 (The EMBO Journal, 2024)

How the values were obtained:
[1] = biological target: T1, His14-NEDD8-tagged APD of xtNup98 (715–866) (Xenopus tropicalis, UniProt A0A1B8XZT4); experiment: pull-down; His14-NEDD8-APD of xtNup98 immobilised on Ni2+ chelate matrix, incubated with xNup98-Nb1t or xhNup98-Nb2i, then xNup96(1–20)-RFP or xtNup88(2–500) added; eluted by NEDP1; SDS-PAGE/Coomassie; conditions: both partners purified
T1 construct: held on the Ni2+ chelate matrix by the tag; the tag was cleaved by NEDP1 only for elution; also called Nup98-APD; immobilized APD; source: E. coli NEB Express, purified

[2] = biological target: T2, Xenopus Nup98, endogenous (Xenopus laevis (egg extract, assumed), UniProt A0A8J1MFV7); experiment: immunostaining of cells or tissue; digitonin-semi-permeabilized sfGFP-Nup107 HeLa cells incubated 2 h at RT with buffer or Xenopus egg extract, energy mix and 35 nM fluorescent tracking nanobodies; Airyscan confocal microscopy; conditions: one partner purified
T2 construct: Nup98, the cut product of the Nup98–Nup96 fusion protein (Nup196); the egg extract contains the already cleaved entities; also called xNup98; source: endogenous, soluble fraction of Xenopus egg extract; also as recruited from the extract to NPCs

[3] = biological target: the molecule itself; experiment: crystal structure; hNup35(173–248)·xhNup35-Nb1t complex; 0.05 M HEPES pH 6.5, 25% PEG400, 0.05 M NaCl, 0.01 M MgCl2
[4] = biological target: T3, recombinant Xenopus Nup93 target (BLI) (Xenopus, UniProt Q7ZX96); experiment: BLI; nanobodies (biotin-[PEG]3-maleimide on two ectopic cysteines) immobilised on High Precision Streptavidin sensors; target proteins at 30–100 nM; 25 °C; PBS pH 7.4, 0.02% Tween-20, 0.1% BSA; apparent KDs; conditions: both partners purified
T3 construct: Nup93, Xenopus; the immunogen was the Nup93 α-solenoid domain; also called xNup93; source: E. coli NEB Express, purified
T3 sequence (Q7ZX96 whole entry, the tested form may be a part): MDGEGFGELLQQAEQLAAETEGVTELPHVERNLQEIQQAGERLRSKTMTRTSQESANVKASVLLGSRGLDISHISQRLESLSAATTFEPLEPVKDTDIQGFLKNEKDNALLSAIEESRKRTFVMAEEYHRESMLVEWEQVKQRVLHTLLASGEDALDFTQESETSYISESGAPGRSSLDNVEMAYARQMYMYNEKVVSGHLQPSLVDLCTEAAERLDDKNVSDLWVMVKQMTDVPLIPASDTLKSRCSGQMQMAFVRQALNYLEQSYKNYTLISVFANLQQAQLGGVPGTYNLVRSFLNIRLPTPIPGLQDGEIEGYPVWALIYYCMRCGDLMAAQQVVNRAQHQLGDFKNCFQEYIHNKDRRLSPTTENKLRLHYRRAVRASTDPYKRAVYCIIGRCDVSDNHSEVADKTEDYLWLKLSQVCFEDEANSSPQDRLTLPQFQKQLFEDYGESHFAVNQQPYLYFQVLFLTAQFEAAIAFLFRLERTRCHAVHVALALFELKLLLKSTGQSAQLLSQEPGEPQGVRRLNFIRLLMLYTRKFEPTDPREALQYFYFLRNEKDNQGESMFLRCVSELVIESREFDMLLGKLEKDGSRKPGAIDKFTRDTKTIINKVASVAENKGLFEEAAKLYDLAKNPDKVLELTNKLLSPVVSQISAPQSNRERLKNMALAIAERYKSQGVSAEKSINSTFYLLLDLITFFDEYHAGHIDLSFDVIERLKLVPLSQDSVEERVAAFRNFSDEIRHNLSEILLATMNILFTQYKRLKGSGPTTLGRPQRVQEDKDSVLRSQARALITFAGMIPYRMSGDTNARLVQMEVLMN

[5] = biological target: T4, recombinant human Nup93 target (BLI) (human, UniProt Q8N1F7); experiment: as above; conditions: both partners purified
T4 construct: Nup93, human; the immunogen was the Nup93 α-solenoid domain; also called hNup93; source: E. coli NEB Express, purified
T4 sequence (Q8N1F7 whole entry, the tested form may be a part): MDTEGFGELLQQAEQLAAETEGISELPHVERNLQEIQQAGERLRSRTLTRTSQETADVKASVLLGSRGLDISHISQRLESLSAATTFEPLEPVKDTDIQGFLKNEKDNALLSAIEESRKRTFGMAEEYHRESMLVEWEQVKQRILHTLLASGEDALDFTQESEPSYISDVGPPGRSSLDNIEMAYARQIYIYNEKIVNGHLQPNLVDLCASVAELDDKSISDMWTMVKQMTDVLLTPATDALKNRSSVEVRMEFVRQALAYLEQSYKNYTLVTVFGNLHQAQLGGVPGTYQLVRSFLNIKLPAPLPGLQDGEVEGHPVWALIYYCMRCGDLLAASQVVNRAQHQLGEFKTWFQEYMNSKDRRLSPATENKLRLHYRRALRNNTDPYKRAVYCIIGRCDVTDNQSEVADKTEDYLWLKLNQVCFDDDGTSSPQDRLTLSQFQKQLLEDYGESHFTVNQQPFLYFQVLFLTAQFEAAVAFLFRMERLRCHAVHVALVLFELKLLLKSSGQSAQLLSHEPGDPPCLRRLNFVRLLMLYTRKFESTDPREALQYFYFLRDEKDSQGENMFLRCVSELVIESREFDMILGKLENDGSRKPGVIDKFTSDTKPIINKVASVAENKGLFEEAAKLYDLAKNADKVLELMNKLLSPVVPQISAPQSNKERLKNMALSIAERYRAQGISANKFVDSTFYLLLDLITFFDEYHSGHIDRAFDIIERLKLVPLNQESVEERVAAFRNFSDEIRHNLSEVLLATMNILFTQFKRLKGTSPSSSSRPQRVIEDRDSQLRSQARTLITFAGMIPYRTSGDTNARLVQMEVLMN

[6] = biological target: T5, Xenopus Nup93, endogenous (Xenopus (endogenous in egg extract), UniProt Q7ZX96); experiment: pull-down; (biotin)-Avi-SUMO^Eu1-nanobodies on streptavidin-agarose, incubated with HeLa lysate or soluble fraction of Xenopus egg extract, 40 min, 4 °C; eluted by SENP^EuB; SDS-PAGE/Coomassie, identities confirmed by mass spectrometry; conditions: one partner purified
T5 construct: Nup93 of Xenopus egg extract; also called xNup93; source: endogenous, soluble fraction of Xenopus egg extract
T5 sequence (Q7ZX96 whole entry): as the sequence (Q7ZX96 whole entry, the tested form may be a part) above

human Nup93, endogenous = biological target: T6, human Nup93, endogenous (human (endogenous in HeLa), UniProt Q8N1F7); experiment: as above; conditions: one partner purified
T6 construct: Nup93, human; also called hNup93; source: endogenous, HeLa lysate
T6 sequence (Q8N1F7 whole entry): as the sequence (Q8N1F7 whole entry, the tested form may be a part) above

[7] = biological target: T7, xNup93(168–820), α-solenoid domain of Xenopus laevis Nup93 (Xenopus laevis, UniProt Q7ZX96); experiment: cryo-EM structure; equimolar trimeric xNup93(168–820)·xhNup93-Nb4i·xNup93-Nb2t complex; 4.4 Å reconstruction; conditions: both partners purified
T7 construct: also called Nup93 α-solenoid domain; source: E. coli NEB Express, purified, untagged
T7 sequence (Q7ZX96 168-820): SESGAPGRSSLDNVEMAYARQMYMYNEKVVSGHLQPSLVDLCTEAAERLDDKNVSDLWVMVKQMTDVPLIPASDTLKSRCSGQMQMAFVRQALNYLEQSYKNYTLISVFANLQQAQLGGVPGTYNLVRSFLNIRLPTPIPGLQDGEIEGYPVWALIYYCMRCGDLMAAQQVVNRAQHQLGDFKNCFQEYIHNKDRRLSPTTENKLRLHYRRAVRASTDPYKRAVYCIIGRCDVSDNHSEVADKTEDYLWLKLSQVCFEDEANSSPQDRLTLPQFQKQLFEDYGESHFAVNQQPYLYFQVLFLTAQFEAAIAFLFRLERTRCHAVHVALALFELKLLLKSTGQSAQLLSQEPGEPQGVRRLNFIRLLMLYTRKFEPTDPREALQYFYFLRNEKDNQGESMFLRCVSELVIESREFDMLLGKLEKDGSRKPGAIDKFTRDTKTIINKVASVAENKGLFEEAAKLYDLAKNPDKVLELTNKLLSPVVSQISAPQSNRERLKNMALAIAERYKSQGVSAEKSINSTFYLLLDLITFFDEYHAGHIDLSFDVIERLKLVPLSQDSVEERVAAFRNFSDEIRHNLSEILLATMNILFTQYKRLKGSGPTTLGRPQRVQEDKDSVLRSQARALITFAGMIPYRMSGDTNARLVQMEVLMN

[8] = biological target: T8, xNup98-APD (residues 714–864), autoproteolytic domain of Xenopus tropicalis Nup98 (Xenopus tropicalis); experiment: crystal structure; xNup98-APD(714–864) with xhNup98-Nb2i or xhNup98-Nb3i; 2.5% PEG6000, 25% PEG MME500, 100 mM Tris/HCl pH 9; conditions: both partners purified
T8 construct: also called APD of Xenopus tropicalis xNup98; source: E. coli NEB Express, purified, untagged
T8 chain: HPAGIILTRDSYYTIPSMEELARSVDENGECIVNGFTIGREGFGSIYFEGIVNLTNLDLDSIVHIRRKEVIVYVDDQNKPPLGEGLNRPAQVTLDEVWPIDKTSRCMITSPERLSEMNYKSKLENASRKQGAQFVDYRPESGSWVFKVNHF

[9] = biological target: T2, Xenopus Nup98, endogenous; experiment: pull-down; (biotin)-Avi-SUMO^Eu1-nanobodies on streptavidin-agarose, incubated with HeLa lysate or soluble fraction of Xenopus egg extract, 40 min, 4 °C; eluted by SENP^EuB; SDS-PAGE/Coomassie, identities confirmed by mass spectrometry; conditions: one partner purified
human Nup98, endogenous = biological target: T9, human Nup98, endogenous (human (endogenous in HeLa), UniProt P52948); experiment: as above; conditions: one partner purified
T9 construct: Nup98, the cut product of the Nup98–Nup96 fusion protein, human; also called hNup98; source: endogenous, HeLa lysate; also in NPCs of semi-permeabilized HeLa cells
T9 sequence (P52948 1-880): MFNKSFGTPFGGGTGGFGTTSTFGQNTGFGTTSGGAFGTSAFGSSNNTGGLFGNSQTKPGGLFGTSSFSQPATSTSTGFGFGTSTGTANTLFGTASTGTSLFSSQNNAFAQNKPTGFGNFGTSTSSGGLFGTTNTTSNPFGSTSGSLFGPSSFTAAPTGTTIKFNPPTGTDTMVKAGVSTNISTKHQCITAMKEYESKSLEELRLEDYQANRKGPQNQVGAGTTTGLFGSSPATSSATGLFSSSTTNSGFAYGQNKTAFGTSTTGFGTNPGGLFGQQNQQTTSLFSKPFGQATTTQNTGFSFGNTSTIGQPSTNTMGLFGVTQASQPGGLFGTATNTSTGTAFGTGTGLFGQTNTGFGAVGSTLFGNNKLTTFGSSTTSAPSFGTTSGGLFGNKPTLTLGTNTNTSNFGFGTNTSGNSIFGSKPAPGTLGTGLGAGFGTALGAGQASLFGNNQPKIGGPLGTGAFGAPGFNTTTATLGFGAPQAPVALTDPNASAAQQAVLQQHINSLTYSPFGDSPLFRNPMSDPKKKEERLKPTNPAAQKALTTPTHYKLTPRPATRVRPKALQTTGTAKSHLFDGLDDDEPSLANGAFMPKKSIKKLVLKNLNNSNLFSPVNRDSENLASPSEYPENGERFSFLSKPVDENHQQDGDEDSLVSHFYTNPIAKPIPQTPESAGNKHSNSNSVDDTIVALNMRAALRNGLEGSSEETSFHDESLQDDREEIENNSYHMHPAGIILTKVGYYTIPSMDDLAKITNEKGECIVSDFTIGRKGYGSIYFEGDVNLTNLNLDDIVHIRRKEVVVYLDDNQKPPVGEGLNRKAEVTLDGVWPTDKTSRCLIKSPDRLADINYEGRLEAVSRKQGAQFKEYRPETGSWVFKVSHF

[10] = biological target: T10, hNup35 (residues 173–248), RRM domain (human, UniProt Q8NFH5); experiment: crystal structure; hNup35(173–248)·xhNup35-Nb1t complex; 0.05 M HEPES pH 6.5, 25% PEG400, 0.05 M NaCl, 0.01 M MgCl2; conditions: both partners purified
T10 construct: Nup35 (also called Nup53 or MP44), human, RRM domain, residues 173-248; also called homodimeric RRM domain of Homo sapiens (h)Nup35; Nup35 RRM; source: E. coli NEB Express, purified, untagged

human Nup35, endogenous = biological target: T11, human Nup35, endogenous (Homo sapiens (HeLa), UniProt Q8NFH5); experiment: immunostaining of cells or tissue; sfGFP-Nup107 HeLa cells, PFA-fixed and Triton X-100-permeabilized or unfixed and digitonin-semi-permeabilized; 35 nM Alexa Fluor 647-labelled nanobody, 30 min, RT; confocal microscopy; conditions: one partner purified
T11 construct: Nup35, human; also called hNup35; source: endogenous, in NPCs of HeLa cells
T11 sequence (Q8NFH5 whole entry): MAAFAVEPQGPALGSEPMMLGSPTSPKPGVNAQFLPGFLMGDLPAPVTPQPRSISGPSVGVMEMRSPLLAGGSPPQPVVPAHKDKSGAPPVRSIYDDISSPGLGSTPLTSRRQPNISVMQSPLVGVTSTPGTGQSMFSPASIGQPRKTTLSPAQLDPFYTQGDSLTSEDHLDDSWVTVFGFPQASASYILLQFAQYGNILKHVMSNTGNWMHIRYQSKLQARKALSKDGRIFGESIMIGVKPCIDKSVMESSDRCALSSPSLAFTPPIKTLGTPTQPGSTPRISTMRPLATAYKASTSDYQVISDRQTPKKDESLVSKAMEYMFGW

[11] = biological target: T12, Xenopus Nup35, endogenous (Xenopus laevis (egg extract), UniProt Q6INW0); experiment: immunostaining of cells or tissue; digitonin-semi-permeabilized sfGFP-Nup107 HeLa cells incubated 2 h at RT with buffer or Xenopus egg extract, energy mix and 35 nM fluorescent tracking nanobodies; Airyscan confocal microscopy; conditions: one partner purified
T12 construct: Nup35 of Xenopus egg extract; also called xNup35; source: endogenous, from Xenopus egg extract, in newly assembled NPCs

B1: xNup98-Nb1t (as added in the binding assay of Fig. 11C) (VHH)
VHH: QVQLVESGGGPVEAGGSLRLSCAASGRSFSNSVMAWFRQAPGKEREFLSVLNWSSGRTSIADSVKGRFTMSRDPAKITVYLQMNGLKPEDTAVYYCAASNRGSLYTLDNQNRYEDWGQGTQVTVSS
notes: they are in PDB 5E0Q (xNup98-APD·xNup98-Nb1t complex, Pleiner et al, 2015); also called tracking nanobody xNup98-Nb1t; source: E. coli SHuffle, purified
Does B1 bind [1]?
Result: binds

B2: xNup98-Nb1t, fluorophore-labelled (VHH)
VHH: B1 VHH
notes: as the VHH of m10 with engineered cysteines; source: E. coli SHuffle, purified, labelled with maleimide dye
Does B2 bind [2]?
Result: binds

B3: hNup35 (residues 173–248), RRM domain (domain or fragment, human, UniProt Q8NFH5 173-248, looked up)
chain: DSWVTVFGFPQASASYILLQFAQYGNILKHVMSNTGNWMHIRYQSKLQARKALSKDGRIFGESIMIGVKPCIDKSV
notes: Nup35 (also called Nup53 or MP44), human, RRM domain, residues 173-248; also called homodimeric RRM domain of Homo sapiens (h)Nup35; Nup35 RRM; source: E. coli NEB Express, purified, untagged
Does B3 bind [3]?
Result: binds

B4: xhNup93-Nb4i, biotinylated for BLI (VHH)
VHH: QVQLVESGGGVVQTGDSLMLSCTVSGHTIDNWAMGWFRQTPRKQREFVAAIDKRGTGAIYGNSVKGRFTVSRDNAKNMVYLRMNSLKPEDTAVYFCAVDQLNAGLGDVSYDYDYWGQGTQVTVSS
notes: as the VHH of m1 with two ectopic cysteines; source: E. coli SHuffle, purified
Which results are given for B4?
binding result [4]: binds; binding result [5]: binds

B5: (biotin)-Avi-SUMO^Eu1-xhNup93-Nb4i (VHH)
VHH: B4 VHH
notes: as the VHH of m1; the tag was cleaved by SENP^EuB only for elution; source: E. coli SHuffle, purified; not shown: Avi (biotinylated), N-terminal, kept; SUMO^Eu1, N-terminal, kept
Which results are given for B5?
binding result [6]: binds; binding result (human Nup93, endogenous): binds

B6: xhNup93-Nb4i (VHH)
VHH: B4 VHH
notes: they are in PDB 8CDS (unliganded nanobody) and PDB 7ZOX (complex with xNup93); form used for the cryo-EM complex; for the unliganded crystal it was expressed as a His14-bdSUMO fusion and cleaved; source: E. coli SHuffle, purified (Ni2+ chelate, NEDP1 protease elution, SEC)
Does B6 bind [7]?
Result: binds

B7: xhNup98-Nb2i (VHH)
VHH: QVQLVESGGGLAKPGGSLRLSCVATGTFRSMEDVGWYRQAPGKDRELVAEITTLGKVTYADSVKGRFTISRDDAKNAVYLQMSDLKSEDTAVYYCNIEADQTKGIGYVVYPYWGQGTRVTVSS
notes: they are in PDB 7NQA (complex with xNup98-APD); form of the crystal structure; also called xNup98-Nb2i; source: E. coli SHuffle, purified (Ni2+ chelate, NEDP1 protease elution, SEC)
Does B7 bind [8]?
Result: binds

B8: (biotin)-Avi-SUMO^Eu1-xhNup98-Nb2i (VHH)
VHH: B7 VHH
notes: as the VHH of m5; the tag was cleaved by SENP^EuB only for elution; source: E. coli SHuffle, purified; not shown: Avi (biotinylated), N-terminal, kept; SUMO^Eu1, N-terminal, kept
Does B8 bind [9]?
Result: binds

Does B8 bind (human Nup98, endogenous)?
Result: binds

B9: xhNup98-Nb2i (as added in the binding assay of Fig. 11C) (VHH)
VHH: B7 VHH
notes: as the VHH of m5; source: E. coli SHuffle, purified
Does B9 bind [1]?
Result: binds

B10: xhNup98-Nb3i (VHH)
VHH: QVQLVESGGGLVQAGGSLRLSCAASGRTFSTYAMGWFRQAPGKEREFVSACSWSGGITRYADSVKGRFTISRDNAKNTVYLQMNSLKPEDTAVYYCASAASSAAYSGAYYYTSYYDYWGQGTQVTVSS
notes: they are in PDB 7NOW (complex with xNup98-APD); form of the crystal structure; source: E. coli SHuffle, purified (Ni2+ chelate, NEDP1 protease elution, SEC)
Does B10 bind [8]?
Result: binds

B11: xhNup35-Nb1t (VHH)
VHH: QVQLVESGGGLVQAGGSLRLSCVGTGNISSAYTMAWYRQAAGKEREVVAGILNGGSTHYADSVKGRFTISRDNAKNTVYLQMNSLQPEDTGVYCCHVVIESTRFVYDHYWGQGTRVTVSS
notes: they are in PDB 8OZB (complex with the human Nup35 RRM homodimer); form of the crystal structure; also called cross-specific anti-Nup35 nanobody; source: E. coli SHuffle, purified (Ni2+ chelate, NEDP1 protease elution, SEC)
Does B11 bind [10]?
Result: binds

B12: xhNup35-Nb1t, fluorophore-labelled (VHH)
VHH: B11 VHH
notes: as the VHH of m12 with engineered cysteines; source: E. coli SHuffle, purified, labelled with maleimide dye
Does B12 bind (human Nup35, endogenous)?
Result: binds

Does B12 bind [11]?
Result: binds

B13: xNup93-Nb2t (VHH)
VHH: DVQLVESGGGLVQPGGSLRLSCVASGFTFSRVGMGWVRQAPGKGLEWVSDINASGGTGYADSVKGRFAISRDNAKNTLYLQMNRLKPEDTAVYYCAKMMDTAMIEAGIIKPAGQGTQVTVSS
notes: they are in the PDB entry of the unliganded nanobody (printed as 8CDT in the methods and 8CD7 in the data availability) and in PDB 7ZOX; purified untagged in the cryo-EM complex; for the unliganded crystal expressed as a His14-bdSUMO fusion and cleaved; also called tracking nanobody xNup93-Nb2t; source: E. coli SHuffle, purified
Does B13 bind [7]?
Result: binds
